Assay [1] addresses VirE (Streptomyces virginiae). As to the kind of experiment: other fluorescence titration; tryptophan fluorescence quenching; VirC, VirD, VirD mutant or VirE at 5 μM in TE buffer (20 mM Tris-HCl pH 8.5, 2 mM EDTA), 25 °C, titrated with ACP ligand (0–150 μM); excitation 295 nm; one site-specific binding model; averaged data of two independent measurements.
Assay [2] has as its target VirD (Streptomyces virginiae). The assay is described as above.
Assay [3] addresses VirC (Streptomyces virginiae). Described as above.
Assay [4] addresses VirE (Streptomyces virginiae). As to the kind of experiment: SAXS; SEC-coupled SAXS (SWING beamline, Bio-SEC 100 Å column), 15 °C, 20 mM Tris-HCl pH 8.5, 300 mM NaCl, 5% glycerol, 50 μL at 5 mg/mL; curves compared with crystal structures or models (CRYSOL, SASREF).
Assay [5] has as its target Se-VirD (Streptomyces virginiae). Put plainly: crystal structure; holo-ACP5b–Se-VirD complex, hanging drop, ratio 1:4, 100 mM calcium chloride, 30% PEG 1500, 10% 2-propanol, 100 mM imidazole-HCl pH 6.5; space group H3; 2.1 Å.
Assay [6] has the same target. Put plainly: crystal structure; Se-VirD alone, 20% PEG 400, 20% PEG 800, 100 mM Tris-HCl pH 7.5; space group P4(1)2(1)2; Se-SAD, 1.7 Å.
In assay [7] the target is VirD (Streptomyces virginiae). As to the kind of experiment: SAXS; SEC-coupled SAXS (SWING beamline, Bio-SEC 100 Å column), 15 °C, 20 mM Tris-HCl pH 8.5, 300 mM NaCl, 5% glycerol, 50 μL at 5 mg/mL; curves compared with crystal structures or models (CRYSOL, SASREF).
The target in assay [8] is VirD E128Q (Streptomyces virginiae). Put plainly: other fluorescence titration; tryptophan fluorescence quenching; VirC, VirD, VirD mutant or VirE at 5 μM in TE buffer (20 mM Tris-HCl pH 8.5, 2 mM EDTA), 25 °C, titrated with ACP ligand (0–150 μM); excitation 295 nm; one site-specific binding model; averaged data of two independent measurements.

The values below come from paper PMC10006238.

The Kd is the constant that tells how readily two partners part at equilibrium. Read a low Kd as tighter binding. The term stoichiometry N denotes the number of molecules, sites or subunits per partner or assembly.

Turning to holo-ACP7 (domain or fragment), the Kd was 22 µM in assay [1], 4.3 µM in assay [2] and 18 µM in assay [3].

“holo-ACP5a-ACP5b didomain (domain or fragment)”: the Kd came out at 42 µM in assay [1], 19 µM in assay [2] and 17 µM in assay [3].

Consider VirE (enzyme), for which the stoichiometry N in assay [4] amounted to 3.

As to apo-Sna ACP7 (domain or fragment), the Kd in assay [2] worked out at 166 µM; in assay [3], 78 µM.

For the molecule apo-ACP7 (domain or fragment), the results for the Kd in assay [1], in assay [2] and in assay [3] were 301 µM, 75 µM and 75 µM, respectively.

With Se-VirD (enzyme), the stoichiometry N in assay [5] and in assay [6] was 3 in each case.

VirD (enzyme) returned a stoichiometry N in assay [7] of 3.

holo-Sna ACP7 (domain or fragment): the Kd in assay [2] and in assay [3] was 13 µM throughout.

B1: apo-ACP5a (domain or fragment)
chain: GPGSAGRQEEIAEEVARLLAGVLYLEPDRLDPEETFLTLGVDSILGVEFVAAVNAAYPVGVKATALYDHPTPAAFARHIAESLGA
Take B1: the Kd amounted to 653 µM in assay [1], 102 µM in assay [2] and 166 µM in assay [3].

B2: HMG-ACP5a (domain or fragment)
chain: GPGSAGRQEEIAEEVARLLAGVLYLEPDRLDPEETFLTLGVDSILGVEFVAAVNAAYPVGVKATALYDHPTPAAFARHIAESLGA
modifications: HMG form ((RS)-3-hydroxy-3-methylglutarate as substrate mimic on the phosphopantetheine)
In the case of B2, the Kd in assay [2] came out at 51 µM.

B3: apo-ACP5a E6761A/L6764N (domain or fragment)
chain: GPGSAGRQEEIAEEVARLLAGVLYLEPDRLDPEATFNTLGVDSILGVEFVAAVNAAYPVGVKATALYDHPTPAAFARHIAESLGA
Consider B3, for which the Kd in assay [2] came out at 117 µM; in assay [3], 61 µM.

B4: holo-ACP5a L6764N (domain or fragment)
chain: GPGSAGRQEEIAEEVARLLAGVLYLEPDRLDPEETFNTLGVDSILGVEFVAAVNAAYPVGVKATALYDHPTPAAFARHIAESLGA
modifications: phosphopantetheine (holo form)
For the molecule B4, the Kd in assay [2] stood at 4.1 µM; in assay [3], 11 µM.

B5: holo-ACP5a E6761A (domain or fragment)
chain: GPGSAGRQEEIAEEVARLLAGVLYLEPDRLDPEATFLTLGVDSILGVEFVAAVNAAYPVGVKATALYDHPTPAAFARHIAESLGA
modifications: phosphopantetheine (holo form)
In the case of B5, the Kd in assay [2] turned out to be 6.1 µM; in assay [3], 4.7 µM.

B6: acetoacetyl-ACP5a (domain or fragment)
chain: GPGSAGRQEEIAEEVARLLAGVLYLEPDRLDPEETFLTLGVDSILGVEFVAAVNAAYPVGVKATALYDHPTPAAFARHIAESLGA
modifications: acetoacetyl form (acetoacetate as substrate mimic on the phosphopantetheine)
In assay [3], B6 came in with a Kd of 40 µM.

B7: methylcrotonyl-ACP5a (domain or fragment)
chain: GPGSAGRQEEIAEEVARLLAGVLYLEPDRLDPEETFLTLGVDSILGVEFVAAVNAAYPVGVKATALYDHPTPAAFARHIAESLGA
modifications: methylcrotonyl form (3-methylcrotonate as substrate mimic on the phosphopantetheine)
With B7, the Kd in assay [1] turned out to be 287 µM.

B8: apo-ACP5a L6764N (domain or fragment)
chain: GPGSAGRQEEIAEEVARLLAGVLYLEPDRLDPEETFNTLGVDSILGVEFVAAVNAAYPVGVKATALYDHPTPAAFARHIAESLGA
Take B8: the Kd was determined as 83 µM in assay [2] and 89 µM in assay [3].

B9: apo-ACP5a E6761A (domain or fragment)
chain: GPGSAGRQEEIAEEVARLLAGVLYLEPDRLDPEATFLTLGVDSILGVEFVAAVNAAYPVGVKATALYDHPTPAAFARHIAESLGA
Turning to B9, the Kd in assay [2] is 186 µM; in assay [3], 108 µM.

B10: holo-ACP5a E6761A/L6764N (domain or fragment)
chain: GPGSAGRQEEIAEEVARLLAGVLYLEPDRLDPEATFNTLGVDSILGVEFVAAVNAAYPVGVKATALYDHPTPAAFARHIAESLGA
modifications: phosphopantetheine (holo form)
In the case of B10, the Kd in assay [2] is 7 µM; in assay [3], 10 µM.

B11: acetoacetyl-ACP5b (domain or fragment)
chain: GPGSAVAVDPAPVARALREELARTLYCEPGDIDDEASFNTLGLDSILGVEFVAFVNQTYGLDEKAGILYDHPSLAALSRHVAGRAAPV
modifications: acetoacetyl form (acetoacetate as substrate mimic on the phosphopantetheine)
B11 registered a Kd in assay [3] of 4.3 µM.

B12: apo-ACP5b (domain or fragment)
chain: GPGSAVAVDPAPVARALREELARTLYCEPGDIDDEASFNTLGLDSILGVEFVAFVNQTYGLDEKAGILYDHPSLAALSRHVAGRAAPV
Consider B12, for which the Kd in assay [1] came to 171 µM; in assay [2], 178 µM; in assay [3], 77 µM.

B13: HMG-ACP5b (domain or fragment)
chain: GPGSAVAVDPAPVARALREELARTLYCEPGDIDDEASFNTLGLDSILGVEFVAFVNQTYGLDEKAGILYDHPSLAALSRHVAGRAAPV
modifications: HMG form ((RS)-3-hydroxy-3-methylglutarate as substrate mimic on the phosphopantetheine)
With B13, the Kd in assay [2] is 39 µM; in assay [8], 33 µM.

B14: holo-ACP5b (domain or fragment)
chain: GPGSAVAVDPAPVARALREELARTLYCEPGDIDDEASFNTLGLDSILGVEFVAFVNQTYGLDEKAGILYDHPSLAALSRHVAGRAAPV
modifications: phosphopantetheine (Ppant) on S6871
For B14, the Kd turned out to be 6.8 µM in assay [1], 2.9 µM in assay [2] and 3.8 µM in assay [3].

B15: methylcrotonyl-ACP5b (domain or fragment)
chain: GPGSAVAVDPAPVARALREELARTLYCEPGDIDDEASFNTLGLDSILGVEFVAFVNQTYGLDEKAGILYDHPSLAALSRHVAGRAAPV
modifications: methylcrotonyl form (3-methylcrotonate as substrate mimic on the phosphopantetheine)
As to B15, the Kd in assay [1] was found to be 30 µM.
